Biological target: T1, endogenous NIBP (NIK and IKK2 Binding Protein) in MCF7 cells (human (MCF7 cells; species not printed …, UniProt Q96Q05 1-1148, limits assumed)
T1 construct: Immunoprecipitated from whole cell lysate with anti-NIBP antibody
Assay: co-immunoprecipitation with anti-NIBP antibody from MCF7 lysate, immunoblot anti-IKK1/2 and anti-IKK1
Source text: Endogenous NIBP interacts with endogenous IKK2 in breast cancer cells. NIBP association with IKK2, but not IKK1, occurred in MCF7 cells. The level of IKK1 was confirmed by immunoblotting of the same blot (without stripping) with a specific anti-IKK1 antibody. The IKK2 co-immunoprecipitated with NIBP was phosphorylated as shown by the band shift compared to the input and the immunoblotting with anti-phospho IKK1/2(Ser-177/181) antibody (FIG. 4).

T1 sequence (Q96Q05 whole entry): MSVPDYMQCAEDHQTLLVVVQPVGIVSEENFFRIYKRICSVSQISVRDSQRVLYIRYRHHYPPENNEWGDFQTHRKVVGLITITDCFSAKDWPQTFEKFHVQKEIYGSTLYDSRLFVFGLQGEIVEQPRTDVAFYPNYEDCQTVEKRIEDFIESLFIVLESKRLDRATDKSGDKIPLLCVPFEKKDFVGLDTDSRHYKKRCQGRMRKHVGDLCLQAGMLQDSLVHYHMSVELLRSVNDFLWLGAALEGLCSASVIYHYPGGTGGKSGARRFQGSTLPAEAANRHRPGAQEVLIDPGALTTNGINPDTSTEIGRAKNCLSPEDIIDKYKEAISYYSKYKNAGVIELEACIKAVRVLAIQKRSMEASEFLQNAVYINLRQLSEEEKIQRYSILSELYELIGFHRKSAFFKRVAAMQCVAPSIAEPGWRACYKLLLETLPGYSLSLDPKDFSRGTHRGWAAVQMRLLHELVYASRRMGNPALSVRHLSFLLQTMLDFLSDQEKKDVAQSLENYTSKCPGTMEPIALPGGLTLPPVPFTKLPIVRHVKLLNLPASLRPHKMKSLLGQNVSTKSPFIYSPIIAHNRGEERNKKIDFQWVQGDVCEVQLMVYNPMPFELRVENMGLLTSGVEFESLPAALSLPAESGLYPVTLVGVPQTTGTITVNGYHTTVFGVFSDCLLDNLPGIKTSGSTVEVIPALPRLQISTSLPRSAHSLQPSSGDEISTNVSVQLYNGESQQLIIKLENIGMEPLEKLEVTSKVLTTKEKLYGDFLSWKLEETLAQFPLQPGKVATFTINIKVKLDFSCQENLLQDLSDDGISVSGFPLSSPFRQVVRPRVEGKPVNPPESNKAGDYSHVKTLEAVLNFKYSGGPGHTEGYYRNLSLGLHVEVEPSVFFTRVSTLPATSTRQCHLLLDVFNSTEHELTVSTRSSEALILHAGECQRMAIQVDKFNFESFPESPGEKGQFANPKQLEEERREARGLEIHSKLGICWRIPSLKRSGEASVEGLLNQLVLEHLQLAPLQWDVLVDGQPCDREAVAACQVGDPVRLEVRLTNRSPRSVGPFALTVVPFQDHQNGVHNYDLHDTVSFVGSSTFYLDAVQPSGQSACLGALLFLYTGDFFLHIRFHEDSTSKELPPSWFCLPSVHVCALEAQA

binding result: no binding
B1: endogenous IKK1 in MCF7 cells (enzyme, UniProt O15111 1-745, looked up)
chain: MERPPGLRPGAGGPWEMRERLGTGGFGNVCLYQHRELDLKIAIKSCRLELSTKNRERWCHEIQIMKKLNHANVVKACDVPEELNILIHDVPLLAMEYCSGGDLRKLLNKPENCCGLKESQILSLLSDIGSGIRYLHENKIIHRDLKPENIVLQDVGGKIIHKIIDLGYAKDVDQGSLCTSFVGTLQYLAPELFENKPYTATVDYWSFGTMVFECIAGYRPFLHHLQPFTWHEKIKKKDPKCIFACEEMSGEVRFSSHLPQPNSLCSLVVEPMENWLQLMLNWDPQQRGGPVDLTLKQPRCFVLMDHILNLKIVHILNMTSAKIISFLLPPDESLHSLQSRIERETGINTGSQELLSETGISLDPRKPASQCVLDGVRGCDSYMVYLFDKSKTVYEGPFASRSLSDCVNYIVQDSKIQLPIIQLRKVWAEAVHYVSGLKEDYSRLFQGQRAAMLSLLRYNANLTKMKNTLISASQQLKAKLEFFHKSIQLDLERYSEQMTYGISSEKMLKAWKEMEEKAIHYAEVGVIGYLEDQIMSLHAEIMELQKSPYGRRQGDLMESLEQRAIDLYKQLKHRPSDHSYSDSTEMVKIIVHTVQSQDRVLKELFGHLSKLLGCKQKIIDLLPKVEVALSNIKEADNTVMFMQGKRQKEIWHLLKIACTQSSARSLVGSSLEGAVTPQTSAWLPPTSAEHDHSLSCVVTPQDGETSAQMIEENLNCLGHLSTIIHEANEEQGNSMMNLDWSWLTE
notes: Endogenous protein in cell lysate

— US20120258539A1 (TEMPLE UNIVERSITY OF THE COMMONWEALTH OF HIGHER EDUCATION …, published 2012)
